Data set [1] in a line: Saturation Transfer Difference NMR of KASIII enzymes with acetyl-CoA or isobutyryl-CoA. It counts as binding. The protocol:
NMR experiments were performed at 25° C. on a Bruker AV700 MHz spectrometer equipped with a 5 mm HCN cryoprobe. Samples for STD NMR experiments were prepared in 0.1 M sodium phosphate buffer (pH 7.4) with 5% D2O. The protein/ligand ratio was set as 1:100 with KASIII concentration in the 20-25 μM range. Saturation was applied as CW pulse with a power of 58-60 Hz, with on-resonance pulses at 0.62 ppm and 6.86 ppm for upfield and downfield, respectively. The off-resonance pulse was applied at 45 ppm. 3-9-19 WATERGATE suppression was used with a T1-ρ filter. Saturation time of five seconds with an additional delay of 5.1 seconds was used. A set of three replicates was acquired, with 32 scans in each replicate, for each STD NMR experiment of KASIII wild-type or mutated enzyme with a ligand, which was either acetyl-CoA or isobutyryl-CoA (Sigma-Aldrich, St. Louis, Mo.). The reference and the saturated spectra were obtained in an interleaved manner. Resonance assignments of 1H NMR spectra of free ligands were completed using ID 1H and COSY.
Control experiments were carried out by applying on- and off-resonance saturation pulses either to the ligand in the absence of protein, or to the ligand in the presence of denatured protein.
Relative STD effects (ASTD) were calculated according to the equation ASTD=(Io−Isat)/Io where Isat is the signal intensity of the saturated spectrum and Io is the signal intensity of the reference spectrum (Mayer et al., J. Am. Chem. Soc. 123: 6108-6117 (2001)). STD amplification factor was calculated according to the equation: STDaf=ASTD×molar ligand excess.
STD NMR experiments elucidated interactions of these purified enzymes (both wild-type and mutated) with straight-chain substrate (acetyl-CoA) and branched-chain substrate (isobutyryl-CoA) and enabled mapping of binding epitopes on the two substrates. Relative saturation transfer to each of the binding epitopes was measured and converted to the STD amplification factor (STDaf), which is an indicator of ligand binding (Mayer et al., J. Am. Chem. Soc. 123: 6108-6117 (2001)). Ligand epitopes with high STDaf values are assumed to receive higher saturation transfer from the enzyme, and thus are in close contact with the enzyme.

Data set [2] relates to B. subtilis ΔyjaXΔyhfB mutant strain. Description: Genetic complementation of B. subtilis ΔyjaXΔyhfB double mutant with KASIII genes. The conditions noted are these: grown without exogenous branched-chain fatty acids, IPTG induced.
Method: Genetic complementation of the B. subtilis ΔyjaXΔyhfB double mutant strain with aaKASIII, taKASIII or ecKASIII expression vectors was conducted using pUCB-erm-derived plasmids carrying the different KASIII ORF sequences. In these vectors each of the different KASIII ORFs were under the control of the Pspac promoter and were inserted between the downstream and upstream DNA fragments of the 135-bp ORF in the ΔyhfB allele of the ΔyjaXΔyhfB::erm double mutant.
The B. subtilis ΔyjaXΔyhfB mutant strain was used as a vehicle to screen for KASIII enzymes that can utilize branched-chain acyl-CoA substrates and can therefore synthesize branched-chain fatty acids, thereby rescuing the lethal ΔyjaXΔyhfB deletion phenotype. […] The resulting three B. subtilis ΔyjaXΔyhfB mutant strains, each expressing one of the recombinant KASIII genes (due to the inclusion of the inducer IPTG in the media), were grown in the absence of exogenously supplied branched-chain fatty acids.
Data set [3] is classed as binding. The conditions noted are these: ligand in 50-fold molar excess, relative to water control.
Data set [4] is described as follows: Spectrophotometric coupled assay (FabD/FabG, NADPH at 340 nm) of KASIII specific activity with acyl-CoA substrates. The conditions noted are these: for Specific Activity with Isobutyryl-CoA: substrate isobutyryl-CoA.
Method: The method comprises (i) incubating holo-ACP, malonyl-CoA, acyl-CoA, NADPH, and malonyl-CoA:ACP transacylase (FabD), (ii) adding KASIII and 3-ketoacyl-ACP reductase (FabG), and (iii) measuring the change in absorbance at 340 nm when NADPH is converted to NADP+ during reduction of 3-ketoacyl-ACP to 3-hydroxyl-acyl ACP by FabG.
Activity of A. acidocaldarius KASIII with different acyl-CoA substrates (acetyl-CoA, isobutyryl-CoA and 3-hydroxybutyryl-CoA (Sigma-Aldrich)) was ascertained by a coupled assay. The assay was performed in 96-well plate format with three replicates for each reaction condition. In a total volume of 100 μl for each reaction the reaction mix containing 100 μM holo-ACP, 200 μM malonyl-CoA, 10 mM DTT, 50 μM acyl-CoA substrate (either acetyl-CoA, isobutyryl-CoA or 3-hydroxy-butyryl-CoA) and 200 μM NADPH in 0.1 M sodium phosphate buffer (pH 7.2) was pre-incubated with 60 μg of FabD for two minutes. The reaction was started by the addition of 30 μg of FabG and varying concentrations of A. acidocaldarius (0.5-15 μg). Change in absorbance of NADPH that was being converted to NADP^+ during reduction of 3-ketoacyl-ACP 3-hydroxy-acyl-ACP by FabG was recorded at 340 nm using a Biotek multi-plate reader.
Spectrophotometric assay was used to assess the activity of A. acidocaldarius KASIII with various acyl-CoA substrates. The assay coupled the appearance of the KASIII-product (3-ketoacyl-ACP) to the oxidation of NADPH, catalyzed by 3-ketoacyl-ACP reductase (FabG).
KASIII enzymatic activity was ascertained via spectrophotometric assay, which coupled the appearance of 3-ketoacyl-ACP to the oxidation of NADPH, using the E. coli FabG protein to reduce 3-ketoacyl-ACP to 3-hydroxyacyl-ACP. The assay was performed in a 96-well plate-format with three technical replicates for each reaction condition. In a total volume of 100 μl for each reaction, the reaction mix contained 100 μM holo-ACP, 200 μM malonyl-CoA, 10 mM DTT, 50 μM acyl-CoA substrate, and 200 μM NADPH in 0.1 M sodium phosphate buffer (pH 7.2). This mixture was pre-incubated with 60 μg of FabD for two minutes to initiate synthesis of malonyl-ACP from malonyl-CoA and holo-ACP. The reaction was then started by the addition of 30 μg of FabG and varying concentrations of KASIII enzyme (0.5-15 μg). As KASIII catalysed the condensation of acyl-CoA with malonyl-ACP to form 3-ketoacyl-ACP, FabG reduced the 3-ketoacyl-ACP intermediate to 3-hydroxy-acyl ACP in the presence of NADPH.
Data set [5] in a line: Kinetic parameters of aaKASIII and ecKASIII (spectrophotometric enzyme assay). Format: biochemical. How it is done: Therefore, aaKASIII was assayed with 3-hydroxybutyryl-CoA as a substrate, and its specific activity was determined using an in vitro spectrophotometric enzyme assay. KASIII enzyme assays were carried out spectrophotometrically using 400 μM ACP, 400 μM malonyl-CoA, 10-400 μM various acyl-CoAs, 400 μM NADPH, 1 mM DTT, 6 mg/ml FabD, 1.5 mg/ml FabG, and either 4 mg/ml of aaKASIII or 9.5 mg/ml of ecKASIII. The specific activity for this reaction catalysed by aaKASIII was 5-fold and 3-fold higher with isobutyryl-CoA and 3-hydroxybutyryl-CoA, respectively, than that obtained with acetyl-CoA.

Data set [6] can be described thus: Melting temperatures (Tm) of KASIII enzymes without ligand. It counts as physicochemical. The conditions noted are these: in water, no ligand, baseline Tm.
Data set [7] concerns B. subtilis FabH deletion mutant. Put plainly: Fatty acid production by recombinant KASIII in B. subtilis FabH deletion mutant. It counts as cell-based. The conditions noted are these: B. subtilis FabH deletion mutant rescued by the recombinant KASIII.

“Also recorded” adds a separate entry of the source. Like-named read-outs stand apart in the source and are kept apart here.

With “E. coli KASIII Wild-type: E. coli 3-ketoacyl-ACP synthase III encoded by fabH, GenBank AAG55837.1, amino acid sequence SEQ ID NO:62”, in data set [1] (protein/ligand 1:100, 25° C.), the “STD amplification factor (STDaf), HAP proton of acetyl-CoA” value was roughly 6.0; the “STD amplification factor (STDaf), HB proton of isobutyryl-CoA” value is roughly 4.0; the “STD amplification factor (STDaf), HT proton of acetyl-CoA” value is recorded as roughly 5.0; the “STD amplification factor (STDaf), HT proton of isobutyryl-CoA” value was 2.5. In addition, the “Rescue of the lethal phenotype of the B. subtilis ΔyjaXΔyhfB mutant strain” value in data set [2] is “could not”. For the same molecule, in data set [3] (listed as ecKASIII), the “Thermal shift: increase in Tm with acetyl-CoA” value was “bound; also recorded: positive thermal shifts” and the “Thermal shift: increase in Tm with propionyl-CoA” value was “bound; also recorded: positive thermal shifts”. Further, the “Specific Activity with Acetyl-CoA” value in data set [4] (substrate acetyl-CoA, n.d. = not detectable) was 447 ± 68 nmol/min/mg. Further, the “Specific Activity with Isobutyryl-CoA” value in data set [4] (n.d. = not detectable) was found to be 36 ± 14 nmol/min/mg. The “Kinetic parameters (whole line)” value in data set [5] (substrate 3-OH-butyryl-CoA) was “not a substrate”. In data set [5] (substrate acetyl-CoA), the Km amounted to 96.8 ± 4.7 µM, the “Specific Activity” value came to 447 ± 68 nmol/mg/min, the Vmax turned out to be 0.00033 ± 1e-05 µmol/s and the kcal worked out at 0.0214 ± 0.00093 s⁻¹. Also, the “Kinetic parameters (whole line)” value in data set [5] (substrate isobutyryl-CoA) was “not a substrate”. Also, the “Melting temperature (Tm) without ligand” value in data set [6] was determined as 55.0 ± 0.18 °C. For the same molecule, in data set [6] (listed as ecKASIII), the “Melting temperature (Tm) without ligand” value is roughly 55.0 °C.

B1: KASIII from Bacteroides vulgatus: KASIII from Bacteroides vulgatus, GenBank ABR38167.1 (protein, UniProt A6KXK3 1-334, looked up)
Beta-ketoacyl-[acyl-carrier-pr …: MEKINAVITGVGGYVPDYVLTNEEISRMVDTNDEWIMTRIGVKERRILNEEGLGTSYMARKAAKQLMQKTASNPDDIDAVIVATTTPDYHFPSTASILCDKLGLKNAFAFDLQAACCGFLYLMETAASLIASGRHKKIIIVGADKMSSMVNYQDRATCPIFGDGAAACMVEATTEDYGIMDSILRTDGKGLPFLHMKAGGSVCPPSYFTVDHKMHYLYQEGRTVFKYAVSNMSDITATIAEKNGLNKDNIDWVIPHQANLRIIDAVASRLEVPLEKVMINIQRYGNTSGATLPLCLWDYEKQLKKGDNLIFTAFGAGFTYGAVYVKWGYDGSKR
Regarding B1, the “Substrate preference in the spectrophotometric assay” value in data set [4] (acetyl-CoA, isobutyryl-CoA and 3-hydroxybutyryl-CoA tested) is “higher preference for isobutyryl-CoA and 3-hydroxybutyryl-CoA as compared to acetyl-CoA”. In data set [7], the “Fatty acid content: Anteiso-fatty acids” value worked out at 70.43 mole %, the “Fatty acid content: Even-number iso-fatty acids” value stood at 1.73 mole %, the “Fatty acid content: Even-number normal fatty acids” value was 9.51 mole % and the “Fatty acid content: Odd-number iso-fatty acids” value is listed as 18.24 mole %. The “Fatty acid content: Odd-number normal fatty acids” value in data set [7] was determined as 0.09 mole %.

B2: B. subtilis KASIIIa M213L: B. subtilis KASIIIA single mutant M213L, amino acid sequence SEQ ID NO:122 (protein)
chain: MKAGILGVGRYIPEKVLTNHDLEKMVETSDEWIRTRTGIEERRIAADDVFSSHMAVAAAKNALEQAEVAAEDLDMILVATVTPDQSFPTVSCMIQEQLGAKKACAMDISAACAGFMYGVVTGKQFIESGTYKHVLVVGVEKLSSITDWEDRNTAVLFGDGAGAAVVGPVSDDRGILSFELGADGTGGQHLYLNEKRHTIMNGREVFKFAVRQLGESCVNVIEKAGLSKEDVDFLIPHQANIRIMEAARERLELPVEKMSKTVHKYGNTSAASIPISLVEELEAGKIKDGDVVVMVGFGGGLTWGAIAIRWGR
modifications: B. subtilis KASIIIA mutant; (213)..(213) methionine at amino acid position 213 replaced with leucine
On to B2, for which, in data set [1] (mutant vs wild-type), the “Decrease in STDaf for acetyl-CoA HT proton” value is recorded as 40%; the “Decrease in saturation transfer/STDaf for isobutyryl-CoA HT and HB protons in comparison to the wild-type” value is 60-70%. In addition, the “Specific Activity with Isobutyryl-CoA” value in data set [4] (n.d. = not detectable) is 156 ± 47 nmol/min/mg.

B3: B. subtilis KASIIIb Wild-type: B. subtilis KASIIIB, bfabHB (yhfB) locus, GenBank CAB12857.1, amino acid sequence SEQ ID NO:66 (protein)
chain: MSKAKITAIGTYAPSRRLTNADLEKIVDTSDEWIVQRTGMRERRIADEHQFTSDLCIEAVKNLKSRYKGTLDDVDMILVATTTSDYAFPSTACRVQEYFGWESTGALDINATCAGLTYGLHLANGLITSGLHQKILVIAGETLSKVTDYTDRTTCVLFGDAAGALLVERDEETPGFLASVQGTSGNGGDILYRAGLRNEINGVQLVGSGKMVQNGREVYKWAARTVPGEFERLLHKAGLSSDDLDWFVPHSANLRMIESICEKTPFPIEKTLTSVEHYGNTSSVSIVLALDLAVKAGKLKKDQIVLLFGFGGGLTYTGLLIKWGM
modifications: B. subtilis
Regarding B3, in data set [3], the “Thermal shift: increase in Tm with 3-hydroxybutyryl-CoA” value is on record as “thermally stabilized”, the “Thermal shift: increase in Tm with butyryl-CoA” value was no less than 6 °C, the “Thermal shift: increase in Tm with crotonyl-CoA” value was no less than 6 °C and the “Thermal shift: increase in Tm with isobutyryl-CoA” value is no less than 6 °C. Moreover, in data set [3], the “Thermal shift: increase in Tm with isovaleryl-CoA” value is no less than 6 °C, the “Thermal shift: increase in Tm with methylmalonyl-CoA” value was no less than 6 °C, the “Thermal shift: increase in Tm with phenylacetyl-CoA” value is no less than 6 °C and the “Thermal shift: increase in Tm with propionyl-CoA” value was no less than 6 °C. For the same molecule, in data set [3] (listed as bsKASIIIb), the “Thermal shift: increase in Tm with benzoyl-CoA” value is given as “destabilized the bsKASIIIb protein” and the “Thermal shift: increase in Tm with hexanoyl-CoA” value is “destabilized the bsKASIIIb protein”. Moreover, the “Specific Activity with Isobutyryl-CoA” value in data set [4] (n.d. = not detectable) was 279 ± 8 nmol/min/mg. The “Melting temperature (Tm) without ligand” value in data set [6] came to 48.7 ± 0.24 °C. For the same molecule, the “Melting temperature (Tm) without ligand” value in data set [6] (listed as bsKASIIIb) was roughly 48.7 °C.
